B1: Thymidylate synthase (Lactobacillus casei), P00469 (protein)
chain: MLEQPYLDLAKKVLDEGHFKPDRTHTGTYSIFGHQMRFDLSKGFPLLTTKKVPFGLIKSELLWFLHGDTNIRFLLQHRNHIWDEWAFEKWVKSDEYHGPDMTDFGHRSQKDPEFAAVYHEEMAKFDDRVLHDDAFAAKYGDLGLVYGSQWRAWHTSKGDTIDQLGDVIEQIKTHPYSRRLIVSAWNPEDVPTMALPPCHTLYQFYVNDGKLSLQLYQRSADIFLGVPFNIASYALLTHLVAHECGLEVGEFIHTFGDAHLYVNHLDQIKEQLSRTPRPAPTLQLNPDKHDIFDFDMKDIKLLNYDPYPAIKAPVAV
B2: Thymidylate synthase (Mus musculus), P07607 (protein)
chain: MLVVGSELQSDAQQLSAEAPRHGELQYLRQVEHILRCGFKKEDRTGTGTLSVFGMQARYSLRDEFPLLTTKRVFWKGVLEELLWFIKGSTNAKELSSKGVRIWDANGSRDFLDSLGFSARQEGDLGPVYGFQWRHFGAEYKDMDSDYSGQGVDQLQKVIDTIKTNPDDRRIIMCAWNPKDLPLMALPPCHALCQFYVVNGELSCQLYQRSGDMGLGVPFNIASYALLTYMIAHITGLQPGDFVHTLGDAHIYLNHIEPLKIQLQREPRPFPKLKILRKVETIDDFKVEDFQIEGYNPHPTIKMEMAV

Experiments:
[1] = substrate: CC1=C(c2cn([C@H]3C[C@H](O)[C@@H](COP(=O)(O)O)O3)c(=O)[nH]c2=O)C(=O)c2ccccc2C1=O; conditions: Lacticaseibacillus casei
[2] = substrate: CC1=C(C)C(=O)C(c2cn([C@H]3C[C@H](O)[C@@H](COP(=O)(O)O)O3)c(=O)[nH]c2=O)=C(C)C1=O; conditions: Lacticaseibacillus casei
[3] = substrate: CC1=C(C)C(=O)C(c2cn([C@H]3C[C@H](O)[C@@H](COP(=O)(O)O)O3)c(=O)[nH]c2=O)=CC1=O; conditions: Lacticaseibacillus casei
[4] = compound: O=C1C=CC(=O)C(c2cn([C@H]3C[C@H](O)[C@@H](COP(=O)(O)O)O3)c(=O)[nH]c2=O)=C1; test: (§1) Ability to inhibit the thymidylate synthase from Lactobacillus casei was determined and expressed as inhibition constant(Km); conditions: Lacticaseibacillus casei
[5] = compound: COc1c(C)c(-c2cn([C@H]3C[C@H](O)[C@@H](COP(=O)(O)O)O3)c(=O)[nH]c2=O)c(OC)c2ccccc12; test: as §1; conditions: Lacticaseibacillus casei
[6] = compound: COc1c(C)c(C)c(OC)c(-c2cn([C@H]3C[C@H](O)[C@@H](COP(=O)(O)O)O3)c(=O)[nH]c2=O)c1C; test: as §1; conditions: Lacticaseibacillus casei
[7] = substrate: COc1cc(-c2cn([C@H]3C[C@H](O)[C@@H](COP(=O)(O)O)O3)c(=O)[nH]c2=O)c(OC)c(C)c1C; conditions: Lacticaseibacillus casei
[8] = substrate: CC1=C(c2cn([C@H]3C[C@H](O)[C@@H](COP(=O)(O)O)O3)c(=O)[nH]c2=O)C(=O)c2ccccc2C1=O; conditions: L1210
[9] = substrate: CC1=C(C)C(=O)C(c2cn([C@H]3C[C@H](O)[C@@H](COP(=O)(O)O)O3)c(=O)[nH]c2=O)=C(C)C1=O; conditions: L1210
[10] = substrate: CC1=C(C)C(=O)C(c2cn([C@H]3C[C@H](O)[C@@H](COP(=O)(O)O)O3)c(=O)[nH]c2=O)=CC1=O; conditions: L1210

| Protein | Km [1] [µM] | Km [2] [µM] | Km [3] [µM] | Km [4] [µM] | Km [5] [µM] | Km [6] [µM] | Km [7] [µM] | Km [8] [µM] | Km [9] [µM] | Km [10] [µM] |
| --- | --- | --- | --- | --- | --- | --- | --- | --- | --- | --- |
| B1 | 6.41 | 6.98 | 6.98 | 7.6 | 5.25 | 5.25 | 5.25 | – | – | – |
| B2 | – | – | – | – | – | – | – | 0.6 | 0.57 | 2.46 |
